# Ends that are not written are not given here.
# Target: α3β1 integrin on PC12 cells (rat (PC12 cells)) (UniProt P49134)
# Assay: cell-based or functional assay
# Chain of α3β1 integrin on PC12 cells (rat (PC12 cells)) (P49134 21-798): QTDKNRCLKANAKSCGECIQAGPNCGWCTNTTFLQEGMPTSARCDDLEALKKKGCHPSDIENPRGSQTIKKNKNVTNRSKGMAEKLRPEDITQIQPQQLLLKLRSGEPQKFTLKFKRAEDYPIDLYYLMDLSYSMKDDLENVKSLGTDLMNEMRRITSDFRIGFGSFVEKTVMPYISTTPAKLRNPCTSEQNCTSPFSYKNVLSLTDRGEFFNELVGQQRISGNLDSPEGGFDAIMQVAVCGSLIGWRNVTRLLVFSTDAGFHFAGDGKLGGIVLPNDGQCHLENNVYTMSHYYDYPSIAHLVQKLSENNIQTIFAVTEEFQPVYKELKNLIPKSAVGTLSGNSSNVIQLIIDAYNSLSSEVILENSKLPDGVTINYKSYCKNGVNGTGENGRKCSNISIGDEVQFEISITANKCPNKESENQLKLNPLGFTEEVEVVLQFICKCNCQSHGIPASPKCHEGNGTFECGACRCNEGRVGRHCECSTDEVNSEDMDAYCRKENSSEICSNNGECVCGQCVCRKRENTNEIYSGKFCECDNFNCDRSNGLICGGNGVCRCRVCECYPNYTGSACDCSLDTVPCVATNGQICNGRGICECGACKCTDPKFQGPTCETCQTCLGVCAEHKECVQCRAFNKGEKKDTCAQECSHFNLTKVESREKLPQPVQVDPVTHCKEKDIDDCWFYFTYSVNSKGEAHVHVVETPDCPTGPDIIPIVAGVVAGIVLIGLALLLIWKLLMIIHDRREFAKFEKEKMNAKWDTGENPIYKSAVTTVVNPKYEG
binder,measurement,value
RNIPPFEGCIWN-NH2 [Ln2-LG3-P2 peptide (…)],inhibition of PC12 cell adhesion to coated rLG3 (25 µg/mL) by soluble peptide,40 % inhibition

# Reference: US20120238503A1
